# Measurements as given in US20060257938A1, “Method of screening for drugs that block ligand binding to a lipid binding protein” (priority 2005, published 2006).
# Positions count from the first letter of the chain named. Values joined by “and” are separate entries in the source; they are usually repeats but may differ in a detail not shown here. Identical values can stand only once.
# B1: 17W, 72A (protein, listed as Rattus norvegicus)
# chain: AFDGTWKVDRNENYEKWMEKMGINVVKRKLGAHDNLKLTITQEGNKFTVKESSNFRNIDVVFELGVDFAYSAADGTELTGTWTMEGNKLVGKFKRVDNGKELIAVREISGNELIQTYTYEGVEAKRIFKKE
# modifications: PEPTIDE (1)...(131) wild-type rat intestinal fatty acid binding protein
# B2: 23K1, 72A (protein, listed as Rattus norvegicus)
# chain: B1 chain with W17F, I23K
# modifications: PEPTIDE (1)...(131) wild-type rat intestinal fatty acid binding protein
# B3: 23F2, 72A (protein, listed as Rattus norvegicus)
# chain: B1 chain with W17F, I23F
# modifications: PEPTIDE (1)...(131) wild-type rat intestinal fatty acid binding protein
# B4: 23H1, 72A (protein, listed as Rattus norvegicus)
# chain: B1 chain with W17F, I23H
# modifications: PEPTIDE (1)...(131) wild-type rat intestinal fatty acid binding protein
# B5: 23L3, 72A (protein, listed as Rattus norvegicus)
# chain: B1 chain with W17F, I23L
# modifications: PEPTIDE (1)...(131) wild-type rat intestinal fatty acid binding protein
# B6: 23N1, 72A (protein, listed as Rattus norvegicus)
# chain: B1 chain with W17F, I23N
# modifications: PEPTIDE (1)...(131) wild-type rat intestinal fatty acid binding protein
# B7: 17Y, 72A (protein, listed as Rattus norvegicus)
# chain: B1 chain with W17Y
# modifications: PEPTIDE (1)...(131) wild-type rat intestinal fatty acid binding protein
# B8: 18Q, 72A (protein, listed as Rattus norvegicus)
# chain: B1 chain with W17F, M18Q
# modifications: PEPTIDE (1)...(131) wild-type rat intestinal fatty acid binding protein
# B9: 21W, 72A (protein, listed as Rattus norvegicus)
# chain: B1 chain with W17F, M21W
# modifications: PEPTIDE (1)...(131) wild-type rat intestinal fatty acid binding protein
# Experiment: Probe fluorescence ratio response to oleic acid relative to ADIFAB2
# Type: binding
# Details: response relative to ADIFAB2
# Procedure, shortened: (§1)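 Each fatty acid's response was expressed relative to ADIFAB2, the rI-FABP-L72A probe, as ΔR/ΔRreference. ΔR is the change in the background-corrected two-wavelength intensity ratio R=Fλ1/Fλ2 from its analyte-free baseline R0. Emission was read near about 420-480 nm for unbound and about 495-580 nm for FFA-bound probe.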
row,Molecule,DR/DR OA
1,B1,1.24 and 1.241
2,B2,0.13
3,B3,0.20
4,B4,0.11
5,B5,1.06
6,B6,0.12
7,B7,0.73 and 0.732
8,B8,0.08
9,B9,3.02

# Experiment: Probe fluorescence ratio response to linoleic acid relative to ADIFAB2
# Type: binding
# Details: response relative to ADIFAB2
# Procedure, shortened: as §1
row,Molecule,DR/DR LA
1,B1,1.42 and 1.416
2,B2,0.14
3,B3,0.19
4,B4,0.13
5,B5,1.04
6,B6,0.13
7,B7,0.71 and 0.712
8,B8,0.11
9,B9,2.43

# Experiment: Probe fluorescence ratio response to linolenic acid relative to ADIFAB2
# Type: binding
# Details: response relative to ADIFAB2
# Procedure, shortened: as §1
row,Molecule,DR/DR LNA
1,B1,1.61 and 1.611
2,B2,0.13
3,B3,0.17
4,B4,0.17
5,B5,1.03
6,B6,0.13
7,B7,0.81 and 0.806
8,B8,0.13
9,B9,2.40

# Experiment: Probe fluorescence ratio response to palmitic acid relative to ADIFAB2
# Type: binding
# Details: response relative to ADIFAB2
# Procedure, shortened: as §1
row,Molecule,DR/DR PA
1,B1,1.07 and 1.067
2,B2,0.08
3,B3,0.12
4,B4,0.13
5,B5,0.93
6,B6,0.10
7,B7,0.50
8,B8,0.09
9,B9,1.45

# Experiment: Probe fluorescence ratio response to arachidonic acid relative to ADIFAB2
# Type: binding
# Details: arachidonic acid; response relative to ADIFAB2
# Procedure, shortened: as §1
row,Molecule,DR/DR AA
1,B1,1.42 and 1.421
2,B2,0.13
3,B3,0.22
4,B4,0.16
5,B5,1.17
6,B6,0.12
7,B7,0.73 and 0.729
8,B8,0.09
9,B9,3.70
